One block for each binder: values may come before it.
Columns and labels:
Experiment in all cases: holdup assay
Design in all cases: key: below the threshold = too weak to quantify, mostly under pKd 3.1 to 4
[1] = molecular target: DLG1_2, Q12959
[2] = molecular target: T1, NHERF3_4, Q5T2W1
T1 sequence (Q5T2W1 373-468, limits assumed, looked up): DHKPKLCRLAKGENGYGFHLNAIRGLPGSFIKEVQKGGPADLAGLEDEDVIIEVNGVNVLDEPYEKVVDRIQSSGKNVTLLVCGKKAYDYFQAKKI

[3] = molecular target: GRASP, Q7Z6J2
[4] = molecular target: PTPN3, P26045
Sequence of PTPN3, P26045 (P26045 505-587): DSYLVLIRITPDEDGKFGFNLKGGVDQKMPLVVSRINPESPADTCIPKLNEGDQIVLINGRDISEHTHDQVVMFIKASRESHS

[5] = molecular target: Inadl_8, Q8NI35
Sequence of Inadl_8, Q8NI35 (Q8NI35 1425-1530): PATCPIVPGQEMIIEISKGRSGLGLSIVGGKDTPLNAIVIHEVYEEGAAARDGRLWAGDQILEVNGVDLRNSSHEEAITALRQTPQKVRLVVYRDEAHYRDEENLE

[6] = molecular target: NOS1, P29475
Sequence of NOS1, P29475 (P29475 9-101): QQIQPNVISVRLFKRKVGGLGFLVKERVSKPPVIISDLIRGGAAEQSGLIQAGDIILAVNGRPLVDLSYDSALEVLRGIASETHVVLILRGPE

[7] = molecular target: MAGI2_3, Q86UL8
Sequence of MAGI2_3, Q86UL8 (Q86UL8 600-682): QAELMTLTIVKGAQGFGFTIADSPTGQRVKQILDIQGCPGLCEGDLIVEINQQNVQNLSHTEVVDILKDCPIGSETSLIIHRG

[8] = molecular target: FRMPD2_1, Q68DX3
Sequence of FRMPD2_1, Q68DX3 (Q68DX3 770-861): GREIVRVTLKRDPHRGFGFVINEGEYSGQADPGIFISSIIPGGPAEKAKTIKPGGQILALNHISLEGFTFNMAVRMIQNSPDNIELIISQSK

[9] = molecular target: T2, LIN7C, Q9NUP9
T2 sequence (Q9NUP9 88-185, limits assumed, looked up): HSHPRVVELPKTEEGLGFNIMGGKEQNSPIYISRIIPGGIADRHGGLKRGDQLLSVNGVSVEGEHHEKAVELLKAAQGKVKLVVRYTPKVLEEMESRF

[10] = molecular target: T3, MPDZ_12, O75970
T3 sequence (O75970 1857-1958, limits assumed, looked up): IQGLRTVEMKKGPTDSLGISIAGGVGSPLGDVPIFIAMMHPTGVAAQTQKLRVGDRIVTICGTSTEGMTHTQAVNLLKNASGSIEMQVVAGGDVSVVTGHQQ

[11] = molecular target: GIPC2, Q8TF65
Sequence of GIPC2, Q8TF65 (Q8TF65 112-203): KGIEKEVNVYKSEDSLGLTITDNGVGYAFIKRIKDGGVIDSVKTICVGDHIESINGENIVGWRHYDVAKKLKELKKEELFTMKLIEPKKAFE

[12] = molecular target: SCRIB_3, Q14160
Sequence of SCRIB_3, Q14160 (Q14160 999-1103): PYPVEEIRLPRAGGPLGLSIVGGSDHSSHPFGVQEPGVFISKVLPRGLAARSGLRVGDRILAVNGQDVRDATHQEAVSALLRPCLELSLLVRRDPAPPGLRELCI

[13] = molecular target: T4, MPDZ_10, O75970
T4 sequence (O75970 1624-1722, limits assumed, looked up): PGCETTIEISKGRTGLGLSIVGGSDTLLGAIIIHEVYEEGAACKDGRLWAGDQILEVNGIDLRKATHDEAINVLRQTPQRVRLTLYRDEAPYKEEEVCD

[14] = molecular target: AHNAK1, Q09666
Sequence of AHNAK1, Q09666 (Q09666 4-100): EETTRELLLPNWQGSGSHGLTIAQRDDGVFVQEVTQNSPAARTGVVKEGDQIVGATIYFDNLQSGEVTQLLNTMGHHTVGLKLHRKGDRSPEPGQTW

[15] = molecular target: T5, RADIL, Q96JH8
T5 sequence (Q96JH8 971-1071, limits assumed, looked up): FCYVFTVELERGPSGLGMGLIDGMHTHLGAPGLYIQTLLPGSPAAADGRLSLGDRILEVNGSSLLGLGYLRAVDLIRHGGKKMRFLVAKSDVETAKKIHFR

[16] = molecular target: MAST2, Q6P0Q8
Sequence of MAST2, Q6P0Q8 (Q6P0Q8 1099-1202): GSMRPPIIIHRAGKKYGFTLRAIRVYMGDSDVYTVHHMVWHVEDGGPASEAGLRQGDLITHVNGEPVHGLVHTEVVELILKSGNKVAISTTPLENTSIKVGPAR

[17] = molecular target: MAGI2_6, Q86UL8
Sequence of MAGI2_6, Q86UL8 (Q86UL8 1141-1229): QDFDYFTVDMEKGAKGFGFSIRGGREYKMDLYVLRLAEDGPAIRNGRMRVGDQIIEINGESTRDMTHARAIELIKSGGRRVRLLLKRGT

[18] = molecular target: T6, RHPN1, Q8TCX5
T6 sequence (Q8TCX5 508-602, limits assumed, looked up): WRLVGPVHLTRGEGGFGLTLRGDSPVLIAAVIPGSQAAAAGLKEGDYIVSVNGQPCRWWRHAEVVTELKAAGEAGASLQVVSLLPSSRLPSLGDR

[19] = molecular target: GORASP2, Q9H8Y8
[20] = molecular target: Inadl_9, Q8NI35
Sequence of Inadl_9, Q8NI35 (Q8NI35 1530-1615): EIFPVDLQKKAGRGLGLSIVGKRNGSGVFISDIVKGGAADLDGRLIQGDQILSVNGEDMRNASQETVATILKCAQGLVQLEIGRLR

[21] = molecular target: NHERF4_1, Q86UT5-2
Sequence of NHERF4_1, Q86UT5-2 (Q86UT5 other isoform, or with tags, fused parts or gaps): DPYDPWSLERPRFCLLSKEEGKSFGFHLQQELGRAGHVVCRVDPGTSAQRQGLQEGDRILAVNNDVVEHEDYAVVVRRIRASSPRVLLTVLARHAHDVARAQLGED

[22] = molecular target: T7, HTRA4, P83105
T7 sequence (P83105 378-476, limits assumed, looked up): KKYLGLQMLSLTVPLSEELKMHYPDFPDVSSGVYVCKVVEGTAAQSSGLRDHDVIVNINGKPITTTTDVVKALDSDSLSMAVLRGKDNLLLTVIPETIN

[23] = molecular target: T8, APBA3_1, O96018
T8 sequence (O96018 389-490, limits assumed, looked up): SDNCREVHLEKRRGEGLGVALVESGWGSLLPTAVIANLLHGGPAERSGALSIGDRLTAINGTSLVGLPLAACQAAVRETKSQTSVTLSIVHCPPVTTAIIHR

[24] = molecular target: T9, APBA1_2, Q02410
T9 sequence (Q02410 742-832, limits assumed, looked up): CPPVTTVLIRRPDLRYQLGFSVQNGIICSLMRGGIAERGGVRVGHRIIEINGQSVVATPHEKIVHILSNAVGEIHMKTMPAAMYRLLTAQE

[25] = molecular target: T10, SNTA1, Q13424
T10 sequence (Q13424 82-180, limits assumed, looked up): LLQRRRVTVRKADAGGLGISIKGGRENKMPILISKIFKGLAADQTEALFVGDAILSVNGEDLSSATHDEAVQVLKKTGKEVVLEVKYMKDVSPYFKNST

[26] = molecular target: DLG4_3, P78352
Sequence of DLG4_3, P78352 (P78352 306-403): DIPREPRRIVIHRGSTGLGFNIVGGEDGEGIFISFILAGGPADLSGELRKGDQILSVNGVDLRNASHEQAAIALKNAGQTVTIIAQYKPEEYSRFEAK

[27] = molecular target: T11, LNX2_3, Q8N448
T11 sequence (Q8N448 463-564, limits assumed, looked up): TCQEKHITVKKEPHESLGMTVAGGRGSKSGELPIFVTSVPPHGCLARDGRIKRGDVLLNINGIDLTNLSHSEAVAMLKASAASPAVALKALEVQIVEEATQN

[28] = plain residues with an end cap or a label only (N-terminal biotin on a linker: ado-ado)
[29] = plain residues with an end cap or a label only (N-terminal biotin on a linker: ttds)
[30] = plain residues with an end cap or a label only (N-terminal biotin on a linker: ahx)

Sequence of GRASP, Q7Z6J2 (Q7Z6J2 96-193): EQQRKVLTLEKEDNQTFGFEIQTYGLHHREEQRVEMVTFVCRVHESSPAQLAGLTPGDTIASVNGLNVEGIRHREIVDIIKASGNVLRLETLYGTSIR
Sequence of DLG1_2, Q12959 (Q12959 314-412): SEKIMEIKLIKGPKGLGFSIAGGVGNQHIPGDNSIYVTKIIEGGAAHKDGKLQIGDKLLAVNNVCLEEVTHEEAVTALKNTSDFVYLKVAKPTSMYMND

B2: CYSLTR2, Q9NS75 (peptide)
chain: SVWLRKETRV
pKd [1, 29]: 5.78 | pKd [2, 29]: 3.48 | pKd [11, 29]: below the threshold | pKd [12, 29]: 4.85 | pKd [13, 29]: 3.92 | pKd [3, 29]: below the threshold | pKd [14, 29]: below the threshold | pKd [15, 29]: 3.7 | pKd [16, 29]: 5.27 | pKd [17, 29]: 3.51 | pKd [18, 29]: 4.08 | pKd [19, 29]: 4.01 | pKd [4, 29]: 4.68 | pKd [20, 29]: 3.39 | pKd [5, 29]: 4.55 | pKd [21, 29]: below the threshold | pKd [6, 29]: 3.85 | pKd [22, 29]: 3.38 | pKd [23, 29]: below the threshold | pKd [7, 29]: 4.73 | pKd [8, 29]: 4.15 | pKd [24, 29]: 3.84 | pKd [9, 29]: 5.03 | pKd [25, 29]: 5.41 | pKd [26, 29]: 6.55 | pKd [27, 29]: below the threshold | pKd [10, 29]: below the threshold

B3: CNKSR2, Q8WXI2 (peptide)
chain: HTHSYIETHV
pKd [1, 30]: 5.1 | pKd [2, 30]: below the threshold | pKd [11, 30]: below the threshold | pKd [12, 30]: 5.11 | pKd [13, 30]: below the threshold | pKd [3, 30]: 3.47 | pKd [14, 30]: below the threshold | pKd [15, 30]: 4.22 | pKd [16, 30]: 5.29 | pKd [17, 30]: 4.41 | pKd [18, 30]: 5.21 | pKd [19, 30]: below the threshold | pKd [4, 30]: 4.58 | pKd [20, 30]: 3.64 | pKd [5, 30]: below the threshold | pKd [21, 30]: below the threshold | pKd [6, 30]: 3.85 | pKd [22, 30]: 3.9 | pKd [23, 30]: below the threshold | pKd [7, 30]: 3.98 | pKd [8, 30]: below the threshold | pKd [24, 30]: 4.16 | pKd [9, 30]: 3.67 | pKd [25, 30]: 4.93 | pKd [26, 30]: 3.74 | pKd [27, 30]: below the threshold | pKd [10, 30]: below the threshold

Results, then the binder that gave them:

pKd [1, 28]: 4.06 | pKd [2, 28]: below the threshold | pKd [3, 28]: 4 | pKd [4, 28]: 4.55 | pKd [5, 28]: 4.63 | pKd [6, 28]: below the threshold | pKd [7, 28]: below the threshold | pKd [8, 28]: below the threshold | pKd [9, 28]: below the threshold | pKd [10, 28]: below the threshold
B1: MUC3B, MUC3A, Q02505;Q9H195 (peptide)
chain: KRPEMTSSSV

pKd [1, 28]: 3.5 | pKd [2, 28]: 3.59 | pKd [11, 28]: 3.48 | pKd [12, 28]: 3.7 | pKd [19, 28]: 3.87 | pKd [6, 28]: 3.58 | pKd [7, 28]: 3.55 | pKd [24, 28]: 3.75 | pKd [26, 28]: 3.52
B4: NF2, P35240 (peptide)
chain: KSRVAFFEEL
